What was measured:
insulin [1] = assay: ligand dot blot (densitometric analysis of dots); conditions: 2.5 μl (0.09 mg/ml) protein dotted on nitrocellulose; 1 μg/ml insulin, 4 °C overnight; parent: est. 0.12; read off a plot
insulin [2] = assay: pull-down (Ni-Sepharose 6 column, Western blot with anti-insulin antibody, densitometric analysis of bands); conditions: 0.1 mg His6-tagged-IGFBP7 mixed with 0.5 mg insulin; parent: est. 0.20; read off a plot

Substance: wild-type IGFBP7 (insulin-like growth factor binding protein 7), His6-tagged (from UniProt Q16270) R198E
- response (insulin [1]): 0.53 Gradation

Substance: wild-type IGFBP7 (insulin-like growth factor binding protein 7), His6-tagged (from UniProt Q16270) R198I; H200F
- response (insulin [2]): 0.1 Gradation
- response (insulin [1]): 0.025 Gradation

Substance: wild-type IGFBP7 (insulin-like growth factor binding protein 7), His6-tagged (from UniProt Q16270) H200F
- response (insulin [1]): 0.11 Gradation

From paper PMC4840315
